We go through 8 substances from US20210253697A1.

In assay [1] the target is human TREM-1 on cells (BWZ/hTREM-1 reporter cells, PBMCs, macrophages, neutrophils, monocytes, synovial tissue cells) (human) (UniProt Q9NP99). Briefly: cell-based or functional assay.
Assay [2] deals with human TREM-1 (hTREM-1 protein, SPR analyte of Examples 9 and 11) (human) (UniProt Q9NP99). The experiment in a line: SPR, mAb captured, hTREM-1 analyte (Example 11). Background: In SPR one partner is held on a chip, and binding of the other changes the refractive index at the surface.
Chain of human TREM-1 (hTREM-1 protein, SPR analyte of Examples 9 and 11) (human) (Q9NP99 21-200 limits assumed): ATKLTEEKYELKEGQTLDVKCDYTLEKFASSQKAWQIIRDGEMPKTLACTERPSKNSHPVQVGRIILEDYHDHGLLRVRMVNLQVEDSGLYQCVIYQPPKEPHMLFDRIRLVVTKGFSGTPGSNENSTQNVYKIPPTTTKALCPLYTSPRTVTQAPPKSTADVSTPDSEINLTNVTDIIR
Assay [3] deals with cynomolgus TREM-1 (cTREM-1 protein, SPR analyte of Examples 9 and 11) (cynomolgus monkey). Briefly: SPR, mAb captured, cTREM-1 analyte (Example 11).
Assay [4] concerns the target T1, cynomolgus monkey TREM-1 on cells (reporter cells, PBMCs, macrophages) (cynomolgus monkey).
T1 sequence: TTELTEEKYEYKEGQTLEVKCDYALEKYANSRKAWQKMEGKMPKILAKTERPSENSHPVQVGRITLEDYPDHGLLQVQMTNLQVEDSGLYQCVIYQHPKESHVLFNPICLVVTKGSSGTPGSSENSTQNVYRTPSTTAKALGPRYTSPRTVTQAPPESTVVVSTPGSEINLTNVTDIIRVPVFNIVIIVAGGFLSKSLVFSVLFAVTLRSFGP
The experiment in a line: cell-based or functional assay.

Chain of human TREM-1 on cells (BWZ/hTREM-1 reporter cells, PBMCs, macrophages, neutrophils, monocytes, synovial tissue cells) (human) (Q9NP99 21-234 limits assumed): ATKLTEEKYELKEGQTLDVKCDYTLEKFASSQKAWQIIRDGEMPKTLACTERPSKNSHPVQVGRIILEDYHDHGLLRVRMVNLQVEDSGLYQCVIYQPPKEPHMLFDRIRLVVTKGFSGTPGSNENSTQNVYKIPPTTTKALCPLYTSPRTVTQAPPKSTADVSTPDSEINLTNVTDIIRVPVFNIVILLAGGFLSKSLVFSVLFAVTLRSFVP
Chain of human PGLYRP1 (O75594 22-196 limits assumed): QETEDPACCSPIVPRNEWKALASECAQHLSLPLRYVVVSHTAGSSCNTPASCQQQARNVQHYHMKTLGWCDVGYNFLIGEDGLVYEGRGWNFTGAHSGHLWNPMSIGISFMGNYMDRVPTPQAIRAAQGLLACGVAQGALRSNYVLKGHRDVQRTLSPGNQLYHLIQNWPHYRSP

The Kd is a measure of binding affinity in units of concentration. Take “Sigma #WH0054210M4 (clone 2E2) (antibody)”: in assay [1], the % remaining activity at 0.003 µg/ml, BWZ/hTREM-1 reporter assay is 98%; the % remaining activity at 0.03 µg/ml, BWZ/hTREM-1 reporter assay turned out to be 104%; the % remaining activity at 0.3 µg/ml, BWZ/hTREM-1 reporter assay amounted to 86%. Moreover, in assay [2], the Kd was found to be 20 nM.
Turning to “Sigma #SAB1405121 (clone 3F5) (antibody)”, in assay [1], the % remaining activity at 0.003 µg/ml, BWZ/hTREM-1 reporter assay worked out at 104%; the % remaining activity at 0.03 µg/ml, BWZ/hTREM-1 reporter assay came to 101%; the % remaining activity at 0.3 µg/ml, BWZ/hTREM-1 reporter assay was 97%.
As for “type II PGLYRP1 on transiently transfected HEK cells (ligand)”, in assay [1], the TNF-a release, RA synovial tissue cells, IgG4 + Type II cells, 1 × 10^4 HEK cells worked out at 95 pg/mL; the TNF-a release, RA synovial tissue cells, IgG4 + Type II cells, 1 × 10^5 HEK cells was 121 pg/mL; the TNF-a release, RA synovial tissue cells, IgG4 + Type II cells, 3 × 10^3 HEK cells was found to be 54.6 pg/mL; the TNF-a release, RA synovial tissue cells, IgG4 + Type II cells, 3 × 10^3 HEK cells (second column so headed) came to 57.9 pg/mL. In addition, the TNF-a release, RA synovial tissue cells, IgG4 + Type II cells, 3 × 10^4 HEK cells in assay [1] was 114 pg/mL.
“TREM-37 (Biolegend, cat. no. 316102) (antibody)”: in assay [1], the % remaining activity at 0.003 µg/ml, BWZ/hTREM-1 reporter assay was 98%; the % remaining activity at 0.03 µg/ml, BWZ/hTREM-1 reporter assay is 103%; the % remaining activity at 0.3 µg/ml, BWZ/hTREM-1 reporter assay amounted to 90%; the Luminescence × 10E6, BWZ/hTREM-1 reporter cells + activated neutrophils amounted to 6.1e+06 luminescence. For the same substance, in assay [1], the normalised reporter signal, antibody at 1 µg/ml (FIG. 3) is > 1. This substance also registered a Kd in assay [2] of 0.8 nM.
Substance “TREM-26 (Biolegend, cat. nos. 314902 and 314907) (antibody)” yielded a Kd in assay [3] of 4 nM. Further, in assay [4], the % remaining cyno TREM-1 activity at 0.74 ug/ml, reporter assay came out at 104% and the % remaining cyno TREM-1 activity at 20 ug/ml, reporter assay was 87.7%. For the same substance, in assay [1], the % remaining activity at 0.003 µg/ml, BWZ/hTREM-1 reporter assay turned out to be 100%; the % remaining activity at 0.03 µg/ml, BWZ/hTREM-1 reporter assay was found to be 124%; the % remaining activity at 0.3 µg/ml, BWZ/hTREM-1 reporter assay came to 108%; the Luminescence × 10E6, BWZ/hTREM-1 reporter cells + activated neutrophils was determined as 9.9e+06 luminescence. In assay [1], the normalised reporter signal, antibody at 1 µg/ml (FIG. 3) is > 1. Moreover, in assay [2], the Kd came out at 0.9 nM.
In assay [1], “MAB1278 (R&D Systems, cat. no. MAB1278) (antibody)” yielded a BWZ/hTREM-1 reporter signal, RA synovial fluid, mAb 0.1 ug/ml, assay 1 of 829000; a BWZ/hTREM-1 reporter signal, RA synovial fluid, mAb 0.1 ug/ml, assay 2 of 691000; a BWZ/hTREM-1 reporter signal, RA synovial fluid, mAb 1 ug/ml, assay 1 of 1.19e+06; a BWZ/hTREM-1 reporter signal, RA synovial fluid, mAb 1 ug/ml, assay 2 of 1.02e+06. For the same substance, in assay [1], the BWZ/hTREM-1 reporter signal, RA synovial fluid, mAb 10 ug/ml, assay 1 is 1.08e+06; the BWZ/hTREM-1 reporter signal, RA synovial fluid, mAb 10 ug/ml, assay 2 came to 1.05e+06; the IL-6, M2 macrophages on platebound mAb 2 µg/ml, Avg came out at 412 pg/mL; the IL-6, M2 macrophages on platebound mAb 6 µg/ml, Avg stood at 877 pg/mL. Moreover, in assay [1], the IL-6, M2 macrophages on platebound mAb 20 µg/ml, Avg was found to be 1350 pg/mL; the Luminescence × 10E6, BWZ/hTREM-1 reporter cells + activated neutrophils was found to be 1e+07 luminescence; the TNFa, M2 macrophages on platebound mAb 2 µg/ml, Avg was 2000 pg/mL; the TNFa, M2 macrophages on platebound mAb 6 µg/ml, Avg is 6450 pg/mL. Besides, in assay [1], the TNFa, M2 macrophages on platebound mAb 20 µg/ml, Avg was found to be 7750 pg/mL; the induction of NFAT-driven LacZ production, 1-10 µg/ml plate bound antibody stood at 40 fold; the induction of reporter luminescence, platebound antibody (FIG. 2) was 32 fold; the normalised reporter signal, antibody at 1 µg/ml (FIG. 3) was > 1.
Take “SC98Z12 (Santa Cruz Biotechnology, sc-80394, clone 98Z12) (antibody)”: in assay [1], the % remaining activity at 0.003 µg/ml, BWZ/hTREM-1 reporter assay was determined as 120%; the % remaining activity at 0.03 µg/ml, BWZ/hTREM-1 reporter assay came to 134%; the % remaining activity at 0.3 µg/ml, BWZ/hTREM-1 reporter assay worked out at 131%. The substance further displayed a Kd in assay [2] of 30 nM.
In the case of “human PGLYRP1 (from UniProt O75594 22-196) (ligand)”, in assay [4], the TNF-α, cyno M2 macrophages, PGN + PGRP-S, Donor 1 Avg worked out at 295 pg/mL and the TNF-α, cyno M2 macrophages, PGN + PGRP-S, Donor 2 Avg was 307 pg/mL. For the same substance, in assay [1], the GM-CSF, RA synovial tissue cells, PGN + PGLYRP1 amounted to 616 pg/mL; the IL-1beta, RA synovial tissue cells, PGN + PGLYRP1 came out at 3770 pg/mL; the IL-6, RA synovial tissue cells, PGN + PGLYRP1 was 4190 pg/mL; the IL-8, RA synovial tissue cells, PGN + PGLYRP1 was 5510 pg/mL. Further, in assay [1], the MCP-1, RA synovial tissue cells, PGN + PGLYRP1 turned out to be 471 pg/mL; the MIP-1beta, RA synovial tissue cells, PGN + PGLYRP1 is 4400 pg/mL; the TNFa, normoxic M2 macrophages, PGN-BS + PGLYRP1, Donor 1 Avg is 728 pg/mL; the TNFa, normoxic M2 macrophages, PGN-BS + PGLYRP1, Donor 2 Avg is 771 pg/mL. The TNFalpha, RA synovial tissue cells, PGN + PGLYRP1 in assay [1] came out at 1440 pg/mL.
